Literature values as cited in patent US5189019A, “Antistasin derived anticoagulant protein” (Merck & Co., Inc., priority 1990, dated 1993).

Target: Factor Xa (Homo sapiens, UniProt P00742)
Details: Tuszynski et al. 1987; Nutt et al. 1988

Chain of Factor Xa (P00742 235-488 limits assumed): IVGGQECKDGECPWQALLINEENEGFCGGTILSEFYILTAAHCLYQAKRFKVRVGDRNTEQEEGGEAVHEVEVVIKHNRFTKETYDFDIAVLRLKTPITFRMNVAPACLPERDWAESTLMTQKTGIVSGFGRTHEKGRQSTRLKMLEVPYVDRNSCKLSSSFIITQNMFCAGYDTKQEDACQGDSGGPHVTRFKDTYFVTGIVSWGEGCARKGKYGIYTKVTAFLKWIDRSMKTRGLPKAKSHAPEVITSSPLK
Chain of Factor Xa (P00742 41-179 partner limits assumed): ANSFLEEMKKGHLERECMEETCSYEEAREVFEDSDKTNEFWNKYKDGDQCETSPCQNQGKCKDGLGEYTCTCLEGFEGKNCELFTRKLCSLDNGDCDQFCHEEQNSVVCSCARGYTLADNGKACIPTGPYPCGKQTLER

B1: Antistasin: 15 kDa cysteine rich protein found in the salivary gland of the Mexican leech, Haementeria officinalis (protein, UniProt P15358 18-136, looked up)
Antistasin: QGPFGPGCEEAGCPEGSACNIITDRCTCSGVRCRMHCPHGFQRSRYGCEFCKCRLEPMKATCDISECPEGMMCSRLTNKCDCKIDINCRKTCPNGLKRDKLGCEYCECRPKRKLIPRLS
- inhibition of Factor Xa in the human blood coagulation cascade: potent inhibitor
